From patent publication US10526611

Target: full-length GALLS (GALLS-FL) fused in frame with LexA in yeast bait vector pEG202 (pE3462)
Test: cell-based or functional assay

Question: “LSH10 (GIP, GALLS Interacting Protein; At2g42610) expressed from the yeast two-hybrid prey vector pGAD424 (from UniProt Q9S7R3 1-177)” was tested. Which β-galactosidase units (β-galactosidase units) did it give?
Answer: 6
